Results on four molecules are retold here after publication PMC12192683, “The LDL receptor-related protein 1 (LRP1) facilitates ACE2-mediated endocytosis of SARS-CoV2 spike protein-containing pseudovirions” (The Journal of Biological Chemistry, 2025).

Sequences and labels used below:
B1: LRP1 cluster III (domain or fragment)
chain: not shown
B2: LRP1 cluster II (domain or fragment)
chain: PQCQPGEFACANSRCIQERWKCDGDNDCLDNSDEAPALCHQHTCPSDRFKCENNRCIPNRWLCDGDNDCGNSEDESNATCSARTCPPNQFSCASGRCIPISWTCDLDDDCGDRSDESASCAYPTCFPLTQFTCNNGRCININWRCDNDNDCGDNSDEAGCSHSCSSTQFKCNSGRCIPEHWTCDGDNDCGDYSDETHANCTNQATRPPGGCHTDEFQCRLDGLCIPLRWRCDGDTDCMDSSDEKSCEGVTHVCDPSVKFGCKDSARCISKAWVCDGDNDCEDNSDEENCESLACRPPSHPCANNTSVCLPPDKLCDGNDDCGDGSDEGELC
B3: Soluble form of the VLDL receptor containing repeats 1 to 8 (domain or fragment)
chain: not shown
notes: also called VLDLR 1 to 8; recombinant soluble VLDLR
B4: LRP1 cluster IV (domain or fragment)
chain: not shown

For orientation: Kd means a measure of binding affinity in units of concentration. As a reminder, the koff is the rate constant with which the complex falls apart. For orientation: kon means a measure of how fast the partners come together.

The target of this experiment is T1, SARS-CoV-2 spike protein S1 subunit (Val16-Arg685) fused to the Fc region of mouse IgG1 (SARS-CoV-2, UniProt P0DTC2 16-685).
T1 construct: The SPR methods name S1-mFc for LRP1, VLDLR and LRP2; I took it as the S1 subunit of all SPR experiments; also called S1-mFc; Spike S1 subunit; source: bought: Sino Biological; not shown: Fc (mouse IgG1), C-terminal, kept
Put plainly: SPR; Biacore 3000; receptor amine-coupled to CM5 chip; ligand flowed in HBS-P (0.01 M HEPES pH 7.4, 0.15 M NaCl, 0.005% P20) with 1 mM CaCl2, 10 ul/min, 25 C; kinetic fit to a 1:1 Langmuir model. The conditions noted are these: both partners purified. In general terms: SPR reads the build-up and loss of mass on a sensor chip optically.
On to B1, for which the Kd is 0.022 µM, the koff amounted to 0.00027 s⁻¹ and the kon worked out at 12000 M⁻¹ s⁻¹.
The molecule B2 showed a Kd of 0.033 µM, a koff of 0.00042 s⁻¹ and a kon of 13000 M⁻¹ s⁻¹.
For B3, in that order: 0.005 µM, 0.00027 s⁻¹ and 110000 M⁻¹ s⁻¹.
Molecule B4 displayed a Kd of 0.067 µM, an off-rate constant (koff) of 0.00066 s⁻¹ and a kon of 9800 M⁻¹ s⁻¹.
